# Measured values from the supplement of paper PMC6757056.
# ± gives the standard deviation of the averaged measurements.
# B1: library; a variant is named by its letters at N, in order (parent)
# chain: GCUGUCACCGGUGUAUUACCCUAGUGGUCGACCGGUCUGAUGAGUCUNNNNNNAGACGAAACAGC
# Legend:
# hypoxanthine [1] = variants of: B1; experiment: FACS-Seq fitted mean relative fluorescence mCherry/BFP without ligand (log10 relative fluorescence); ligand: hypoxanthine (xanthine aptamer); higher = higher reporter protein expression; settings: HEK293T, ligand present: no
# How it was run: (§1)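 HEK293T libraries were lentivirally transduced with an mCherry reporter carrying the ribozyme switch and an EF1α-BFP marker, enriched, and incubated for 48 h with or without ligand before sorting into 6 bins by mCherry/BFP. Genomic DNA from each bin was PCR-amplified, barcoded and sequenced on MiSeq. Fluorescence is the fitted normal mean of the bin counts. The fit used log10(mCherry/BFP), and means were scaled to five spiked-in control ribozymes.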
# hypoxanthine [2] = variants of: B1; experiment: normalized RNA/DNA level with ligand (relative to sTRSVctl = 100) (log10 (% of sTRSVctl)); ligand: hypoxanthine (xanthine aptamer); higher = less ribozyme self-cleavage, higher mRNA level; settings: ligand concentration (+) RNA-Seq: 5 mM, HEK293T, reporter: mCherry (pCS4076), ligand present: yes
# How it was run: (§2)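 HEK293T cells received ligand, where used, 1 h before being transfected with 4 µg per 6-well well of library plasmids encoding reporter-linked ribozyme switches. After 72 h, RNA was extracted with EDTA and sequenced. RNA level was derived from RNA reads per DNA read, normalized to a spiked-in non-cleaving sequence or the top sequences, then scaled and log-transformed. Values were ×100 then log10, the top set was 25 sequences, and the minimum was 100 DNA reads.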
# hypoxanthine [3] = variants of: B1; experiment: normalized RNA/DNA level without ligand (relative to sTRSVctl = 100) (log10 (% of sTRSVctl)); ligand: hypoxanthine (xanthine aptamer); higher = less ribozyme self-cleavage, higher mRNA level; settings: HEK293T, reporter: mCherry (pCS4076), ligand present: no
# How it was run: as §2
# hypoxanthine [4] = variants of: B1; experiment: FACS-Seq fitted mean relative fluorescence mCherry/BFP with ligand (log10 relative fluorescence); ligand: hypoxanthine (xanthine aptamer); ligand concentration (+) FACS-Seq: 5 mM; higher = higher reporter protein expression; settings: HEK293T, ligand present: yes
# How it was run: as §1
variant,measurement,setting,value
GUUACC,FACS-Seq fitted mean (log10),hypoxanthine [1],-0.307 ± 0.2
same,normalized RNA/DNA level with ligand (log10),hypoxanthine [2],1.91 ± 0.057
same,normalized RNA/DNA level without ligand (log10),hypoxanthine [3],1.882 ± 0.018
same,FACS-Seq fitted mean (log10),hypoxanthine [4],-0.559 ± 0.021
CUUCGA,FACS-Seq fitted mean (log10),hypoxanthine [1],-0.0248 ± 0.11
same,normalized RNA/DNA level with ligand (log10),hypoxanthine [2],2.01 ± 0.04
same,normalized RNA/DNA level without ligand (log10),hypoxanthine [3],1.876 ± 0.012
same,FACS-Seq fitted mean (log10),hypoxanthine [4],0.346 ± 0.059
CUUCAC,FACS-Seq fitted mean (log10),hypoxanthine [1],0.798 ± 0.0035
same,normalized RNA/DNA level with ligand (log10),hypoxanthine [2],1.98 ± 0.022
same,normalized RNA/DNA level without ligand (log10),hypoxanthine [3],1.89 ± 0.038
same,FACS-Seq fitted mean (log10),hypoxanthine [4],0.7261 ± 0.0054
CAAAGA,normalized RNA/DNA level with ligand (log10),hypoxanthine [2],1.93 ± 0.03
same,normalized RNA/DNA level without ligand (log10),hypoxanthine [3],1.768 ± 0.0019
CAAAGC,normalized RNA/DNA level with ligand (log10),hypoxanthine [2],1.956 ± 0.01
same,normalized RNA/DNA level without ligand (log10),hypoxanthine [3],1.77 ± 0.021
CAAAGG,normalized RNA/DNA level with ligand (log10),hypoxanthine [2],1.751 ± 0.005
same,normalized RNA/DNA level without ligand (log10),hypoxanthine [3],1.26 ± 0.062
GAAUCC,normalized RNA/DNA level with ligand (log10),hypoxanthine [2],1.93 ± 0.067
same,normalized RNA/DNA level without ligand (log10),hypoxanthine [3],1.898 ± 0.008
GAAUCU,normalized RNA/DNA level with ligand (log10),hypoxanthine [2],1.9 ± 0.069
same,normalized RNA/DNA level without ligand (log10),hypoxanthine [3],1.9 ± 0.044
UAACUU,normalized RNA/DNA level with ligand (log10),hypoxanthine [2],1.97 ± 0.0029
same,normalized RNA/DNA level without ligand (log10),hypoxanthine [3],1.899 ± 0.0086
UAACUC,normalized RNA/DNA level with ligand (log10),hypoxanthine [2],2.009 ± 0.013
same,normalized RNA/DNA level without ligand (log10),hypoxanthine [3],1.97 ± 0.04
UUUUGA,FACS-Seq fitted mean (log10),hypoxanthine [1],0.455 ± 0.043
same,normalized RNA/DNA level with ligand (log10),hypoxanthine [2],1.98 ± 0.031
same,normalized RNA/DNA level without ligand (log10),hypoxanthine [3],1.63 ± 0.023
same,FACS-Seq fitted mean (log10),hypoxanthine [4],0.5 ± 0.019
UUUGAA,FACS-Seq fitted mean (log10),hypoxanthine [1],0.522 ± 0.076
same,normalized RNA/DNA level with ligand (log10),hypoxanthine [2],1.9 ± 0.041
same,normalized RNA/DNA level without ligand (log10),hypoxanthine [3],1.75 ± 0.036
same,FACS-Seq fitted mean (log10),hypoxanthine [4],0.351 ± 0.04
UUUGAG,FACS-Seq fitted mean (log10),hypoxanthine [1],0.198 ± 0.18
same,normalized RNA/DNA level with ligand (log10),hypoxanthine [2],1.88 ± 0.027
same,normalized RNA/DNA level without ligand (log10),hypoxanthine [3],1.54 ± 0.021
same,FACS-Seq fitted mean (log10),hypoxanthine [4],0.502 ± 0.067
GAACCU,normalized RNA/DNA level with ligand (log10),hypoxanthine [2],1.95 ± 0.043
same,normalized RNA/DNA level without ligand (log10),hypoxanthine [3],1.92 ± 0.026
GAACCC,normalized RNA/DNA level with ligand (log10),hypoxanthine [2],1.945 ± 0.0058
same,normalized RNA/DNA level without ligand (log10),hypoxanthine [3],1.88 ± 0.026
GUUCAA,FACS-Seq fitted mean (log10),hypoxanthine [1],0.0385 ± 0.025
same,normalized RNA/DNA level with ligand (log10),hypoxanthine [2],1.89 ± 0.075
same,normalized RNA/DNA level without ligand (log10),hypoxanthine [3],1.79 ± 0.042
same,FACS-Seq fitted mean (log10),hypoxanthine [4],0.294 ± 0.0042
AAAGCC,normalized RNA/DNA level with ligand (log10),hypoxanthine [2],1.94 ± 0.04
same,normalized RNA/DNA level without ligand (log10),hypoxanthine [3],1.817 ± 0.0038
UAAGCC,normalized RNA/DNA level with ligand (log10),hypoxanthine [2],1.9849 ± 0.0019
same,normalized RNA/DNA level without ligand (log10),hypoxanthine [3],1.876 ± 0.015
UAAGCU,normalized RNA/DNA level with ligand (log10),hypoxanthine [2],1.946 ± 0.013
same,normalized RNA/DNA level without ligand (log10),hypoxanthine [3],1.874 ± 0.011
UAAGCA,normalized RNA/DNA level with ligand (log10),hypoxanthine [2],1.89 ± 0.031
same,normalized RNA/DNA level without ligand (log10),hypoxanthine [3],1.8271 ± 0.0017
CUUGAA,FACS-Seq fitted mean (log10),hypoxanthine [1],0.0914 ± 0.0068
same,normalized RNA/DNA level with ligand (log10),hypoxanthine [2],1.95 ± 0.041
same,normalized RNA/DNA level without ligand (log10),hypoxanthine [3],1.706 ± 0.015
same,FACS-Seq fitted mean (log10),hypoxanthine [4],0.182 ± 0.0048
CUUGAU,FACS-Seq fitted mean (log10),hypoxanthine [1],-0.553 ± 0.022
same,normalized RNA/DNA level with ligand (log10),hypoxanthine [2],1.94 ± 0.031
same,normalized RNA/DNA level without ligand (log10),hypoxanthine [3],1.74 ± 0.011
same,FACS-Seq fitted mean (log10),hypoxanthine [4],-0.303 ± 0.012
CUUAUA,FACS-Seq fitted mean (log10),hypoxanthine [1],0.669 ± 0.043
same,normalized RNA/DNA level with ligand (log10),hypoxanthine [2],1.92 ± 0.037
same,normalized RNA/DNA level without ligand (log10),hypoxanthine [3],1.792 ± 0.014
same,FACS-Seq fitted mean (log10),hypoxanthine [4],0.696 ± 0.063
CUUUAG,FACS-Seq fitted mean (log10),hypoxanthine [1],0.52 ± 0.017
same,normalized RNA/DNA level with ligand (log10),hypoxanthine [2],2.02 ± 0.036
same,normalized RNA/DNA level without ligand (log10),hypoxanthine [3],1.808 ± 0.017
same,FACS-Seq fitted mean (log10),hypoxanthine [4],0.386 ± 0.085
CUUUAU,FACS-Seq fitted mean (log10),hypoxanthine [1],0.0718 ± 0.034
same,normalized RNA/DNA level with ligand (log10),hypoxanthine [2],1.88 ± 0.098
same,normalized RNA/DNA level without ligand (log10),hypoxanthine [3],1.78 ± 0.028
same,FACS-Seq fitted mean (log10),hypoxanthine [4],0.344 ± 0.07
AAAAGC,normalized RNA/DNA level with ligand (log10),hypoxanthine [2],1.9 ± 0.027
same,normalized RNA/DNA level without ligand (log10),hypoxanthine [3],1.77 ± 0.042
UAAUGU,normalized RNA/DNA level with ligand (log10),hypoxanthine [2],1.89 ± 0.045
same,normalized RNA/DNA level without ligand (log10),hypoxanthine [3],1.599 ± 0.0059
UAAUGA,normalized RNA/DNA level with ligand (log10),hypoxanthine [2],1.91 ± 0.024
same,normalized RNA/DNA level without ligand (log10),hypoxanthine [3],1.653 ± 0.0099
UAAUGC,normalized RNA/DNA level with ligand (log10),hypoxanthine [2],1.93 ± 0.023
same,normalized RNA/DNA level without ligand (log10),hypoxanthine [3],1.823 ± 0.0029
AUUAGA,FACS-Seq fitted mean (log10),hypoxanthine [1],0.629 ± 0.042
same,normalized RNA/DNA level with ligand (log10),hypoxanthine [2],1.895 ± 0.013
same,normalized RNA/DNA level without ligand (log10),hypoxanthine [3],1.71 ± 0.028
same,FACS-Seq fitted mean (log10),hypoxanthine [4],0.69 ± 0.04
AUUAGG,FACS-Seq fitted mean (log10),hypoxanthine [1],0.0666 ± 0.043
same,normalized RNA/DNA level with ligand (log10),hypoxanthine [2],1.81 ± 0.045
same,normalized RNA/DNA level without ligand (log10),hypoxanthine [3],1.31 ± 0.021
same,FACS-Seq fitted mean (log10),hypoxanthine [4],0.477 ± 0.051
AUUAGC,FACS-Seq fitted mean (log10),hypoxanthine [1],0.269 ± 0.031
same,normalized RNA/DNA level with ligand (log10),hypoxanthine [2],1.92 ± 0.037
same,normalized RNA/DNA level without ligand (log10),hypoxanthine [3],1.77 ± 0.029
same,FACS-Seq fitted mean (log10),hypoxanthine [4],0.487 ± 0.023
GUUGGG,FACS-Seq fitted mean (log10),hypoxanthine [1],0.375 ± 0.11
same,normalized RNA/DNA level with ligand (log10),hypoxanthine [2],1.89 ± 0.025
same,normalized RNA/DNA level without ligand (log10),hypoxanthine [3],1.52 ± 0.029
same,FACS-Seq fitted mean (log10),hypoxanthine [4],0.635 ± 0.028
UAAGGC,normalized RNA/DNA level with ligand (log10),hypoxanthine [2],1.945 ± 0.0051
same,normalized RNA/DNA level without ligand (log10),hypoxanthine [3],1.839 ± 0.0074
GACAAG,normalized RNA/DNA level with ligand (log10),hypoxanthine [2],1.83 ± 0.043
same,normalized RNA/DNA level without ligand (log10),hypoxanthine [3],1.36 ± 0.018
GACAAU,normalized RNA/DNA level with ligand (log10),hypoxanthine [2],1.897 ± 0.017
same,normalized RNA/DNA level without ligand (log10),hypoxanthine [3],1.815 ± 0.013
GACAAC,normalized RNA/DNA level with ligand (log10),hypoxanthine [2],1.93 ± 0.072
same,normalized RNA/DNA level without ligand (log10),hypoxanthine [3],1.73 ± 0.021
CUUGGA,FACS-Seq fitted mean (log10),hypoxanthine [1],0.708 ± 0.039
same,normalized RNA/DNA level with ligand (log10),hypoxanthine [2],1.95 ± 0.032
same,normalized RNA/DNA level without ligand (log10),hypoxanthine [3],1.85 ± 0.02
same,FACS-Seq fitted mean (log10),hypoxanthine [4],0.705 ± 0.086
GUUUAA,FACS-Seq fitted mean (log10),hypoxanthine [1],0.00874 ± 0.0085
same,normalized RNA/DNA level with ligand (log10),hypoxanthine [2],1.917 ± 0.0057
same,normalized RNA/DNA level without ligand (log10),hypoxanthine [3],1.83 ± 0.03
same,FACS-Seq fitted mean (log10),hypoxanthine [4],0.204 ± 0.078
GUUUAG,FACS-Seq fitted mean (log10),hypoxanthine [1],0.256 ± 0.013
same,normalized RNA/DNA level with ligand (log10),hypoxanthine [2],1.81 ± 0.023
same,normalized RNA/DNA level without ligand (log10),hypoxanthine [3],1.464 ± 0.013
same,FACS-Seq fitted mean (log10),hypoxanthine [4],0.65 ± 0.013
GUUCGU,FACS-Seq fitted mean (log10),hypoxanthine [1],0.476 ± 0.02
same,normalized RNA/DNA level with ligand (log10),hypoxanthine [2],1.98 ± 0.087
same,normalized RNA/DNA level without ligand (log10),hypoxanthine [3],1.887 ± 0.01
same,FACS-Seq fitted mean (log10),hypoxanthine [4],0.538 ± 0.014
AAAAUC,normalized RNA/DNA level with ligand (log10),hypoxanthine [2],1.94 ± 0.023
same,normalized RNA/DNA level without ligand (log10),hypoxanthine [3],1.92 ± 0.041
AAAAUA,normalized RNA/DNA level with ligand (log10),hypoxanthine [2],1.909 ± 0.018
same,normalized RNA/DNA level without ligand (log10),hypoxanthine [3],1.777 ± 0.015
GAAUUU,normalized RNA/DNA level with ligand (log10),hypoxanthine [2],1.964 ± 0.015
same,normalized RNA/DNA level without ligand (log10),hypoxanthine [3],1.89 ± 0.022
AAAGAC,normalized RNA/DNA level with ligand (log10),hypoxanthine [2],1.9 ± 0.039
same,normalized RNA/DNA level without ligand (log10),hypoxanthine [3],1.82 ± 0.019
